T1: ICAM-2 (recombinant, Sino Biological 10332-H03H) (UniProt P13598 25-223)
T1 construct: ICAM-2, bought recombinant protein; also called intercellular adhesion molecule 2; source: bought: Sino Biological
T1 sequence (looked up): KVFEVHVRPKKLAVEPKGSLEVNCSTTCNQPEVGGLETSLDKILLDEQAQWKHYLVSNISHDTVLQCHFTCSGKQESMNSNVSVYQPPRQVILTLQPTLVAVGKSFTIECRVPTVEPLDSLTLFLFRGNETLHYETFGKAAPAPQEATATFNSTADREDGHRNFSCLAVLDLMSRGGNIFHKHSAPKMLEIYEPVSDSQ


How the values were obtained:
Conditions in all cases: both partners purified
[1] = biological target: T2, ICAM-1 (recombinant, Sino Biological 10346-H03H) (UniProt P05362 28-480); assay: SPR; ICAM-1, ICAM-2, ICAM-3 amine-coupled to a CM5 chip; αI domains injected; 25 °C; HBST with 1 mM MgCl2
T2 construct: ICAM-1, bought recombinant protein; also called intercellular adhesion molecule 1; source: bought: Sino Biological

[2] = biological target: T1, ICAM-2 (recombinant, Sino Biological …); assay: as above
C3dg = biological target: T3, C3dg (UniProt P01024 955-1303); assay: SPR; C3b deposited on a CM5 chip (amine-coupled seed, then convertase-mediated deposition to about 5000 RU), iC3b and C3dg made from it on the chip; αI domains injected as dilution series, 120 s; Biacore T200, 25 °C; HBST (10 mM HEPES, 150 mM NaCl, 0.005% Tween-20, pH 7.4) with 1 mM MgCl2; Langmuir 1:1 fit, KD calculated
T3 construct: Held on the chip through the thioester-mediated deposit of its parent C3b; also called C3dg fragment; source: made on the SPR chip by co-injecting CR1 and factor I

C3b = biological target: T4, C3b (UniProt P01024 23-667; P01024 749-1663); assay: as above
T4 construct: A seed of about 100 RU C3b was amine-coupled; further C3b was deposited via its thioester moiety to about 5000 RU; also called C3b fragment; C3-derived opsonin; source: bought: Complement Technology (C3b, C3); deposited on the SPR chip from C3 by the FB/FD convertase

T2 sequence (P05362 28-480): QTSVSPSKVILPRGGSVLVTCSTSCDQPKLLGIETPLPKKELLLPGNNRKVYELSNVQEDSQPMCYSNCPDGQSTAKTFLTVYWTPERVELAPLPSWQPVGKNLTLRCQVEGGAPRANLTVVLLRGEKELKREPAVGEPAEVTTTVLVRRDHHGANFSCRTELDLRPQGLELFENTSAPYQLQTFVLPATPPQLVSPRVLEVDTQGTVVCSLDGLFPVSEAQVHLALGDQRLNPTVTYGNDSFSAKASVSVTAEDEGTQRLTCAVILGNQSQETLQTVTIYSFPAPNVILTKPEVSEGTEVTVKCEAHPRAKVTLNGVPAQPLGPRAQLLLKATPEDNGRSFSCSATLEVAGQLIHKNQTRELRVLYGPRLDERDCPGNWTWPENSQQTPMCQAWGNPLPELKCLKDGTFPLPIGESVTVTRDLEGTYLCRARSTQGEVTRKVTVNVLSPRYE

Row | Binder | binding result [1] | binding result [2] | Kd (C3dg) [µM] | Kd (C3b) [µM]
1 | CR4 αXI domain, wild type (WT) (domain or fragment, UniProt P20702 148-336, looked up, integrin alpha-X (CD11c) αI domain, Q148-I336; also called αXI WT; WT αXI) QEQDIVFLIDGSGSISSRNFATMMNFVRAVISQFQRPSTQFSLMQFSNKFQTHFTFEEFRRSSNPLSLLASVHQLQGFTYTATAIQNVVHRLFHASYGARRDAAKILIVITDGKKEGDSLDYKDVIPMADAAGIIRYAIGVGLAFQNRNSWKELNDIASKPSQEHIFKVEDFDALKDIQNQLKEKIFAI | – | – | 30.4 | 55.5
2 | CR4 αXI domain, high-affinity (HA) variant p.I333G (domain or fragment, UniProt P20702 148-336, looked up, integrin alpha-X (CD11c) αI domain, Q148-I336; Addgene numbers tied to αLI and αXI by the order of the sentence; also called αXI HA; HA αXI) QEQDIVFLIDGSGSISSRNFATMMNFVRAVISQFQRPSTQFSLMQFSNKFQTHFTFEEFRRSSNPLSLLASVHQLQGFTYTATAIQNVVHRLFHASYGARRDAAKILIVITDGKKEGDSLDYKDVIPMADAAGIIRYAIGVGLAFQNRNSWKELNDIASKPSQEHIFKVEDFDALKDIQNQLKEKGFAI | – | – | 3.8 | 2.2

Continued, values first:

Row | binding result [1] | binding result [2] | Kd (C3dg) [µM] | Kd (C3b) [µM] | Binder
3 | binds | – | – | – | CD11d αDI domain, high-affinity (HA) variant p.I332G (domain or fragment, UniProt Q13349 145-334, looked up, integrin alpha-D (CD11d) αI domain, P145-A334; plasmid bought from ATG:Biosynthetics; also called αDI HA; HA αDI) PHQEMDIVFLIDGSGSIDQNDFNQMKGFVQAVMGQFEGTDTLFALMQYSNLLKIHFTFTQFRTSPSQQSLVDPIVQLKGLTFTATGILTVVTQLFHHKNGARKSAKKILIVITDGQKYKDPLEYSDVIPQAEKAGIIRYAIGVGHAFQGPTARQELNTISSAPPQDHVFKVDNFAALGSIQKQLQEKGYA
4 | – | binds | 1.4 | 11.6 | CR3 αMI domain, high-affinity (HA) variant p.I332G (domain or fragment, integrin alpha-M (CD11b) αI domain, Q146-A334; beads captured by the His-tag; also called αMI HA; HA αMI) QEDSDIAFLIDGSGSIIPHDFRRMKEFVSTVMEQLKKSKTLFSLMQYSEEFRIHFTFKEFQNNPNPRSLVKPITQLLGRTHTATGIRKVVRELFNITNGARKNAFKILVVITDGEKFGDPLGYEDVIPEADREGVIRYVIGVGDAFRSEKSRQELNTIASKPPRDHVFQVNNFEALKTIQNQLREKGFA

Source: article PMC11853025, “Determining Ligand Binding and Specificity Within the β2-Integrin Family with a Novel Assay Platform” (Biomolecules, 2025)
